Reference: IntAct's records for PubMed 15983381

B1: Parkinson disease protein 7 (Homo sapiens), Q99497 (parent)
chain: MASKRALVILAKGAEEMETVIPVDVMRRAGIKVTVAGLAGKDPVQCSRDVVICPDASLEDAKKEGPYDVVVLPGGNLGAQNLSESAAVKEILKEQENRKGLIAAICAGPTALLAHEIGFGSKVTTHPLAKDKMMNGGHYTYSENRVEKDGLILTSRGPGTSFEFALAIVEALNGKEVAAQVKAPLVLKD

Variants of: B1
Conditions: with daxx_human DAXX

effect of a mutation on the interaction | Variant
decreasing interaction | L166P
